Assay results: the supplement of paper PMC10065799, “High-throughput profiling of sequence recognition by tyrosine kinases and SH2 domains using bacterial peptide display” (eLife, 2023)

How the values were obtained:
Fes = Fes (UniProt P07332); experiment: phosphorylation enrichment, bacterial display (enrichment ratio); higher = better substrate or ligand; peptides without Tyr show the background
MERTK = MERTK (UniProt Q12866); experiment: as above
AncSZ = experiment: as above
Fyn = Fyn (UniProt P06241); experiment: as above
EPHB1 = EPHB1 (UniProt P54762); experiment: as above
EPHB2 = EPHB2 (UniProt P29323); experiment: as above
c-Src = experiment: as above
Hck = Hck (UniProt P08631); experiment: as above
FGFR3 = FGFR3 (UniProt P22607); experiment: as above
FGFR1 = FGFR1 (UniProt P11362); experiment: as above
Fer (mouse) = experiment: as above
c-Abl (mouse) = experiment: as above
Jak2 = Jak2 (UniProt O60674); experiment: as above
c-Src SH2 = experiment: SH2 binding enrichment of the phosphorylated peptide, bacterial display (enrichment ratio); higher = better substrate or ligand; peptides without Tyr show the background
Grb2 SH2 = Grb2 SH2 (UniProt P62993); experiment: as above
SHP2-C SH2 = experiment: as above
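Wherever SH2 binding enrichment of the phosphorylated peptide, bacterial display is given: peptide library displayed on the E. coli surface as eCPX fusions, selected cells deep-sequenced, score is each peptide's frequency after selection divided by its frequency in the input.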
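Wherever phosphorylation enrichment, bacterial display is given: 11-residue human phosphosite peptides and single-mutation variants displayed on the E. coli surface, counted by deep sequencing, each peptide's frequency after selection divided by its frequency in the unselected input library; frequency after pTyr selection over input frequency; kinase dosed for 20-30% of maximal phosphorylation in three min.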

EPHB1, sequence (P54762 whole entry, looked up): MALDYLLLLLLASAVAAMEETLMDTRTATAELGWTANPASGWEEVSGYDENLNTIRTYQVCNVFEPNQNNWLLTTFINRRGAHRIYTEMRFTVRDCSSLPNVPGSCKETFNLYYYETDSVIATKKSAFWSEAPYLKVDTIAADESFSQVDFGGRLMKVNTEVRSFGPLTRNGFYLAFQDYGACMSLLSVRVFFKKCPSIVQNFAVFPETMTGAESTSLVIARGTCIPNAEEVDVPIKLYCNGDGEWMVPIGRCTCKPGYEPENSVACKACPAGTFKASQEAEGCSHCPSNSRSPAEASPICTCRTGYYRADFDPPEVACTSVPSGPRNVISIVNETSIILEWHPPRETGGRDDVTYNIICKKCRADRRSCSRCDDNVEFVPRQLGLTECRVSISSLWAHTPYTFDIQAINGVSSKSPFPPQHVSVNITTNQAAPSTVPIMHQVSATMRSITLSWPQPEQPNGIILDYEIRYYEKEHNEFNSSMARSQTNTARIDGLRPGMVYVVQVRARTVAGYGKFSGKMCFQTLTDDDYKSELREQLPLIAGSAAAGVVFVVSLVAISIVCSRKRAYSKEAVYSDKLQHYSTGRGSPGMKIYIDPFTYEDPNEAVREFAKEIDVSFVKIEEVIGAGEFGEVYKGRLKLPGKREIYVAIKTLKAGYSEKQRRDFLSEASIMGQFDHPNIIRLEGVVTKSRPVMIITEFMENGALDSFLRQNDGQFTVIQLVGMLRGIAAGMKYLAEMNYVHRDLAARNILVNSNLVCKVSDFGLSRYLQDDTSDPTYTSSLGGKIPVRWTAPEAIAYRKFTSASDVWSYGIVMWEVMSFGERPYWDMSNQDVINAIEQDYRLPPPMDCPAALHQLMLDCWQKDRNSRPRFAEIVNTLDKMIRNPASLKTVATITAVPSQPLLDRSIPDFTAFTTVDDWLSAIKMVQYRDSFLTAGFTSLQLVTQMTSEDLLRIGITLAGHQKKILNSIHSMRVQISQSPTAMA
FGFR1, sequence (P11362 whole entry, looked up): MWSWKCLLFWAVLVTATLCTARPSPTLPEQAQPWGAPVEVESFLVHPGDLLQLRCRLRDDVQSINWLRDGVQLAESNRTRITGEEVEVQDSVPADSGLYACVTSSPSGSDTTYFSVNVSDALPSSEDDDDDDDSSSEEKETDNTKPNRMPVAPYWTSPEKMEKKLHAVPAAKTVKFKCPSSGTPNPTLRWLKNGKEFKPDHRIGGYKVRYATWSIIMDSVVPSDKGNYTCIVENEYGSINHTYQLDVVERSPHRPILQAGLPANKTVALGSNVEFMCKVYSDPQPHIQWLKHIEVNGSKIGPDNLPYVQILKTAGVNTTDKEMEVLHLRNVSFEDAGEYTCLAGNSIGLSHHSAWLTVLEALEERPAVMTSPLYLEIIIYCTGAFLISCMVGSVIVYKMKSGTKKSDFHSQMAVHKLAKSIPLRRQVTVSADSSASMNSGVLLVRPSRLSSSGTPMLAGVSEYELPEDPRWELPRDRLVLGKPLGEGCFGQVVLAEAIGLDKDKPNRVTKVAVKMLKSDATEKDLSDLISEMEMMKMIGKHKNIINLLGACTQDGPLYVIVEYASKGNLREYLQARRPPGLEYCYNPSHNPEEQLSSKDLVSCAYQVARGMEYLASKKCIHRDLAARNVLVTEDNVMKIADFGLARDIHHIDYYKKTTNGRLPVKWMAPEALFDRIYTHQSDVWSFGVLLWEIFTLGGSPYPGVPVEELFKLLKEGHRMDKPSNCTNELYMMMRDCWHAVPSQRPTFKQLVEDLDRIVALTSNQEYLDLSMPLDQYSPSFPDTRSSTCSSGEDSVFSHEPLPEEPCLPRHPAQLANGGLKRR
EPHB2, sequence (P29323 whole entry, looked up): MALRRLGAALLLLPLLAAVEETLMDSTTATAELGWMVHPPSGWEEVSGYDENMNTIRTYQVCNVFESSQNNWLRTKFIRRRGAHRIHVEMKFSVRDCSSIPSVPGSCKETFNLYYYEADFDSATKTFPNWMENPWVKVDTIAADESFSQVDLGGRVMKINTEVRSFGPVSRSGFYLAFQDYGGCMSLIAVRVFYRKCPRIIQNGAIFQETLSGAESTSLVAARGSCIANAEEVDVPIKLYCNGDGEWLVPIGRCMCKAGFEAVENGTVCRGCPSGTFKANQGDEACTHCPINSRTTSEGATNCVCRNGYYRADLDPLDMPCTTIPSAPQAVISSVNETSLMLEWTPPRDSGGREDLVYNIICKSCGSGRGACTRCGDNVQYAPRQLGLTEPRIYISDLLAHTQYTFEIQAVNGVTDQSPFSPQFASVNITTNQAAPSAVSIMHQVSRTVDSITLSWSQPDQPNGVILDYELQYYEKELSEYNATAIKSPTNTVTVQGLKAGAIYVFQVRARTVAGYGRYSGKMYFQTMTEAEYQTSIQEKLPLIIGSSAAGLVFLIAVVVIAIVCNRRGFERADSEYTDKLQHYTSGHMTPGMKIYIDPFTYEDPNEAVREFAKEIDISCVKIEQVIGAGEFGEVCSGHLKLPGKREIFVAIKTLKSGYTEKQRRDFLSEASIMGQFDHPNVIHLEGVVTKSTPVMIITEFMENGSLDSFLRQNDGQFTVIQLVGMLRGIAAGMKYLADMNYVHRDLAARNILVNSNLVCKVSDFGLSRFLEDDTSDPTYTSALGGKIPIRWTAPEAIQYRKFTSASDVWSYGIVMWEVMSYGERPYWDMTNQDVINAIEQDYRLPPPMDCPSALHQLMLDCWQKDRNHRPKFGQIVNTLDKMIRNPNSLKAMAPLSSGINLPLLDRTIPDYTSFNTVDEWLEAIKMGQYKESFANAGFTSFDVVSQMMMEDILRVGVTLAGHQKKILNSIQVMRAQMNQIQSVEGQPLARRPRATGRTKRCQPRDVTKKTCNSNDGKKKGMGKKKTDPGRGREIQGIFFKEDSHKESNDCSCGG
Fyn, sequence (P06241 whole entry, looked up): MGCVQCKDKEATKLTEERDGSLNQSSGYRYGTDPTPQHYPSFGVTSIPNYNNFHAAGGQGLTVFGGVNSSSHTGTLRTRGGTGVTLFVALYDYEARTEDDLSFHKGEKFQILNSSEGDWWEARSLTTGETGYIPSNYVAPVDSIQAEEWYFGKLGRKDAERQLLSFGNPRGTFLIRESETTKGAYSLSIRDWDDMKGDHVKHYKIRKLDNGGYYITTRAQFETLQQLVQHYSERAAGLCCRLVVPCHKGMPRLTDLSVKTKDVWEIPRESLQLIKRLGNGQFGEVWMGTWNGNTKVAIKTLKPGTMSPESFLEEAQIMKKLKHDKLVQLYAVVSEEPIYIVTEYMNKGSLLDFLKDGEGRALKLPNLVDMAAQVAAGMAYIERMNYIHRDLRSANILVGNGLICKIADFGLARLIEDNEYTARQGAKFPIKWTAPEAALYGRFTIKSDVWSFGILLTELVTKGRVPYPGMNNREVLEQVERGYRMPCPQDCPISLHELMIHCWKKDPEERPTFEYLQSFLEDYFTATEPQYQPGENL
Hck, sequence (P08631 whole entry, looked up): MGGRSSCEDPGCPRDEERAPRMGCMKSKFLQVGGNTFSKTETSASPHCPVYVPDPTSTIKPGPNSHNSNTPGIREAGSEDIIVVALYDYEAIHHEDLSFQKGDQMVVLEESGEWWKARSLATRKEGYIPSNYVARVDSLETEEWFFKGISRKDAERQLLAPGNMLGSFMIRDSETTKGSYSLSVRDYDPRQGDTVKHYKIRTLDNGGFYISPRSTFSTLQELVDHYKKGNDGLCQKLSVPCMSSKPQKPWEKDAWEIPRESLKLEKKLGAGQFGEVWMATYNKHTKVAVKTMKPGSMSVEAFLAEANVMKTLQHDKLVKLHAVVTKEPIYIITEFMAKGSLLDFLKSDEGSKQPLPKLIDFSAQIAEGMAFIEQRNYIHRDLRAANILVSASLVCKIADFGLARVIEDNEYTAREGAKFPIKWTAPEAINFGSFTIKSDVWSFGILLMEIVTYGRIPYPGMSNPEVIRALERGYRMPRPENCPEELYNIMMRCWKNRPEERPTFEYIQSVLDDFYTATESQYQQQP
Fes, sequence (P07332 whole entry, looked up): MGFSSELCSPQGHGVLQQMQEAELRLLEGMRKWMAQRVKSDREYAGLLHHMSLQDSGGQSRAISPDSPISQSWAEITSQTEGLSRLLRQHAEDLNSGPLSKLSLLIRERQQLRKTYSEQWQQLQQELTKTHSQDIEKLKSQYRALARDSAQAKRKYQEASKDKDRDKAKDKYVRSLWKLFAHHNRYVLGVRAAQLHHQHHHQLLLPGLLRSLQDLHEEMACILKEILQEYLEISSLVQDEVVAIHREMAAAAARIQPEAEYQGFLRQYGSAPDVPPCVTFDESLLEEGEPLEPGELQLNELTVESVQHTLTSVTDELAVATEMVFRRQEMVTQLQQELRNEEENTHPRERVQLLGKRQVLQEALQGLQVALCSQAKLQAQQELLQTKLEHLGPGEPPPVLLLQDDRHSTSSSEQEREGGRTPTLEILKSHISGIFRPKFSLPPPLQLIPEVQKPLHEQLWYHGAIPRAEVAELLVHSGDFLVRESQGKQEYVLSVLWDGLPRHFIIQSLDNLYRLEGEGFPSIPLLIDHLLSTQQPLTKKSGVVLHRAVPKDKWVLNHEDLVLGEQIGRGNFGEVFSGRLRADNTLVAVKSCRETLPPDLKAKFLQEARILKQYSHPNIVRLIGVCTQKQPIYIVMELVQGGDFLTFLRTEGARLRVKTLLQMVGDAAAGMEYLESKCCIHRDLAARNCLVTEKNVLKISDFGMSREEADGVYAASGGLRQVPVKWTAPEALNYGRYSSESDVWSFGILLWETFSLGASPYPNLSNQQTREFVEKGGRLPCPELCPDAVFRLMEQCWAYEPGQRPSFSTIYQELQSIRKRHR

SH2 binding enrichment (c-Src SH2) | SH2 binding enrichment (Grb2 SH2) | SH2 binding enrichment (SHP2-C SH2) | Sequence | phosphorylation enrichment (Fes) | phosphorylation enrichment (MERTK) | phosphorylation enrichment (AncSZ) | phosphorylation enrichment (Fyn) | phosphorylation enrichment (EPHB1) | phosphorylation enrichment (EPHB2) | phosphorylation enrichment (c-Src) | phosphorylation enrichment (Hck) | phosphorylation enrichment (FGFR3) | phosphorylation enrichment (FGFR1) | phosphorylation enrichment (Fer (mouse)) | phosphorylation enrichment (c-Abl (mouse)) | phosphorylation enrichment (Jak2)
0.533 | 0.587 | 0.69 | SLQSEYVHYGG [CDC14A_Y591] | 0.774 | 0.558 | 0.919 | 0.69 | 0.854 | 0.973 | 0.848 | 0.927 | 0.95 | 0.811 | 0.441 | 0.6 | 0.655
0.867 | 1.41 | 1.06 | CEHRGHLFLAI [TEK_Y897_Y897H_YF] | 1.11 | 0.482 | 1.02 | 0.516 | 0.625 | 0.544 | 0.453 | 0.547 | 0.908 | 0.536 | 0.463 | 0.806 | 0.888
0.571 | 0.73 | 0.96 | DENWFYTRAAF [RPS19_Y54_S59F] | 1.32 | 0.55 | 1.25 | 0.47 | 0.681 | 0.594 | 0.534 | 0.629 | 0.786 | 0.586 | 0.571 | 0.868 | 1.48
0.503 | 0.979 | 0.916 | DRTVHYVDEKG [IFT140_Y216_G212R] | 0.742 | 0.393 | 0.666 | 0.429 | 0.431 | 0.436 | 0.341 | 0.441 | 0.515 | 0.413 | 0.368 | 0.46 | 0.597
5.37 | 1.15 | 1.81 | YHLLPYTVRAM [PARS2_Y93] | 0.913 | 9.72 | 1.28 | 3.04 | 2.32 | 1.47 | 3.84 | 8.34 | 13.9 | 16.5 | 0.595 | 24.6 | 6.87
0.611 | 0.836 | 0.835 | IRKDLYSNNVL [ACTC1_Y296_A297S] | 0.553 | 0.518 | 0.506 | 0.415 | 0.497 | 0.476 | 0.322 | 0.419 | 0.422 | 0.425 | 0.414 | 0.444 | 0.471
0.633 | 1.25 | 0.779 | DFTSRYLNASD [PKHD1_Y828] | 0.893 | 0.511 | 0.797 | 0.468 | 0.46 | 0.407 | 0.43 | 0.47 | 0.572 | 0.469 | 0.45 | 0.512 | 0.616
0.337 | 0.805 | 0.607 | NNFGNYNNQSS [HNRNPA1_Y318_D314N] | 0.632 | 0.326 | 0.564 | 0.382 | 0.366 | 0.393 | 0.32 | 0.354 | 0.708 | 0.381 | 0.379 | 0.626 | 0.432
0.498 | 0.764 | 0.501 | VECQVYAEDPF [PCCA_Y401_R399Q_YF] | 1.24 | 0.408 | 1.22 | 0.52 | 0.6 | 0.548 | 0.602 | 0.587 | 1.16 | 0.446 | 0.663 | 0.748 | 0.99
0.294 | 0.788 | 0.518 | RMSQRYGDVLQ [CYP1A2_Y72] | 0.967 | 0.481 | 1.03 | 0.431 | 0.399 | 0.41 | 0.595 | 0.336 | 0.769 | 0.89 | 0.644 | 0.747 | 0.744
0.556 | 0.939 | 0.7 | SVTCPYSPALN [TP53_Y126_T125P] | 1.29 | 0.437 | 0.961 | 0.481 | 0.572 | 0.573 | 2.15 | 0.616 | 0.679 | 0.505 | 0.656 | 1.21 | 1.17
0.636 | 0.73 | 0.334 | AFRRGYFDEEM [PLEC_Y2971_YF] | 1.29 | 0.551 | 1.58 | 0.622 | 0.514 | 0.616 | 0.6 | 0.599 | 0.673 | 0.633 | 0.445 | 0.763 | 1.7
0.39 | 0.735 | 0.76 | EAAFVYVISSA [WNT4_Y113_A114V] | 1.45 | 0.477 | 1.32 | 0.606 | 0.684 | 0.656 | 0.631 | 0.65 | 1.09 | 0.496 | 0.561 | 0.847 | 1.33
0.667 | 1.27 | 0.741 | EFQLPYFNTVP [BMPR1A_Y457_M460T_YF] | 0.935 | 0.454 | 0.879 | 0.454 | 0.523 | 0.549 | 1.26 | 0.523 | 0.541 | 0.682 | 0.423 | 0.615 | 1.08
0.494 | 1.14 | 0.639 | LTEEKYELKEG [TREM1_Y29] | 1.41 | 0.705 | 2.36 | 0.698 | 0.977 | 0.875 | 0.52 | 0.782 | 0.979 | 0.711 | 0.593 | 0.785 | 1.65
0.585 | 0.931 | 0.751 | FSAPNCCFRCG [PPP2CA_Y265_Y265C_YF] | 0.974 | 0.486 | 0.856 | 0.458 | 0.559 | 0.461 | 0.448 | 0.479 | 0.663 | 0.458 | 0.48 | 0.658 | 0.833
0.349 | 0.869 | 0.821 | LLINKYGLSAH [SCP2_Y151] | 0.99 | 0.372 | 0.877 | 0.443 | 0.71 | 0.669 | 0.428 | 0.428 | 0.708 | 0.488 | 0.619 | 0.559 | 0.838

SH2 binding enrichment (c-Src SH2) | SH2 binding enrichment (Grb2 SH2) | SH2 binding enrichment (SHP2-C SH2) | Sequence | phosphorylation enrichment (Fes) | phosphorylation enrichment (MERTK) | phosphorylation enrichment (AncSZ) | phosphorylation enrichment (Fyn) | phosphorylation enrichment (EPHB1) | phosphorylation enrichment (EPHB2) | phosphorylation enrichment (c-Src) | phosphorylation enrichment (Hck) | phosphorylation enrichment (FGFR3) | phosphorylation enrichment (FGFR1) | phosphorylation enrichment (Fer (mouse)) | phosphorylation enrichment (c-Abl (mouse)) | phosphorylation enrichment (Jak2)
0.403 | 1 | 0.693 | DVLEFCNSKKT [PAK1_Y131_Y131C] | 0.861 | 0.433 | 0.83 | 0.423 | 0.459 | 0.483 | 0.535 | 0.401 | 0.581 | 0.428 | 0.436 | 0.532 | 0.806
1.29 | 1.87 | 1.64 | YRNKPYISWPS [CDC42BPB_Y1638_S1633Y] | 0.635 | 0.449 | 0.547 | 0.41 | 0.45 | 0.461 | 0.522 | 0.606 | 0.46 | 0.394 | 0.394 | 0.401 | 0.697
0.528 | 0.937 | 1.19 | VMTVDYSKTVV [SETD2_Y770] | 0.749 | 0.35 | 0.638 | 0.451 | 0.379 | 0.417 | 0.319 | 0.434 | 0.485 | 0.456 | 0.493 | 0.574 | 0.615
0.453 | 0.736 | 0.571 | GGRKGYGGFSR [RECQL5_Y478_D480G] | 0.491 | 0.512 | 0.551 | 0.513 | 0.393 | 0.396 | 0.487 | 0.42 | 0.452 | 0.391 | 0.36 | 0.506 | 0.51
0.425 | 0.865 | 0.702 | HYVYYYSYLLK [PTEN_Y178_R173H] | 2.12 | 5.74 | 2.09 | 1.29 | 2.74 | 1.37 | 3.08 | 3.19 | 5.92 | 6.85 | 0.888 | 2.31 | 2.42
1.75 | 1.56 | 1.64 | MFNPYYGLFEY [NEDD4L_Y680] | 2.16 | 7.1 | 2.18 | 7.66 | 7.89 | 9.35 | 5.76 | 7.23 | 7.3 | 8.53 | 7.76 | 5.87 | 7.13
0.579 | 0.912 | 0.523 | SARFPYLMAEK [LDHB_Y173_R172P] | 0.687 | 0.325 | 0.604 | 0.315 | 0.373 | 0.416 | 0.483 | 0.422 | 0.455 | 0.387 | 0.389 | 0.361 | 0.504
0.492 | 0.749 | 0.433 | RPGGRYPVARR [SHANK3_Y1569_S1566G] | 0.899 | 0.775 | 0.734 | 0.647 | 0.468 | 0.563 | 0.664 | 0.626 | 0.599 | 0.648 | 0.667 | 0.657 | 0.478
0.464 | 0.834 | 0.661 | ACLSLYGGFVE [MVD_Y164_R161L] | 2.02 | 0.607 | 1.67 | 5.43 | 1.21 | 1.13 | 4.75 | 3.83 | 1.31 | 0.681 | 0.817 | 1.46 | 1.92
0.466 | 0.749 | 0.718 | EQWRAYLEGTC [HLA-C_Y183_L180W] | 1.23 | 0.437 | 1.2 | 0.527 | 0.648 | 0.588 | 0.398 | 0.507 | 0.951 | 0.65 | 0.636 | 0.845 | 1.17
0.482 | 0.769 | 0.531 | EPSLVYMVTKI [CPS1_Y768_D767V] | 1.16 | 0.454 | 1.16 | 0.808 | 0.575 | 0.534 | 1.45 | 1.26 | 0.741 | 0.543 | 1.7 | 0.89 | 1.04
0.616 | 0.982 | 0.896 | VFFFSYLLKNH [PTEN_Y180_YF] | 1.57 | 0.362 | 1.06 | 0.373 | 0.559 | 0.519 | 0.426 | 0.391 | 0.729 | 0.643 | 0.537 | 0.918 | 1.11
0.702 | 0.966 | 1.1 | PVVKLYATEGR [RP1_Y199_D202E] | 0.807 | 0.574 | 0.858 | 0.633 | 0.389 | 0.251 | 0.54 | 0.794 | 0.568 | 0.496 | 0.455 | 0.71 | 0.683
0.554 | 0.764 | 0.696 | NDQANYSLNTD [ADA_Y290] | 0.982 | 0.561 | 0.966 | 0.585 | 0.623 | 0.68 | 0.535 | 0.465 | 0.749 | 0.566 | 0.498 | 0.814 | 0.981
0.453 | 0.861 | 0.453 | PRQRRYVFFFS [PTEN_Y174_S170R_YF] | 0.605 | 0.574 | 0.739 | 0.575 | 0.606 | 0.343 | 0.597 | 0.446 | 0.715 | 0.62 | 0.555 | 0.385 | 0.262
0.64 | 0.999 | 0.941 | KRISCYEARFQ [PFKFB3_Y194_S197R_YF] | 0.845 | 0.395 | 0.669 | 0.382 | 0.398 | 0.476 | 0.497 | 0.425 | 0.496 | 0.344 | 0.399 | 0.728 | 0.647
